Source: PMC2863070

Biological target: HSV-2 virion protein 22 (VP22), encoded by gene UL49 peptide on HLA-B*07:02 (human)
Assay: 51Cr release
Conditions: chains alpha TCRAV38-2 CDR3:beta TCRBV5-1 CDR3

EC50 of peptide [nM] | Binder
0.1 | clone 9.66 (peptide) chain 1: CAFGRGAQKLVF chain 2: CATRIGWGTDTQYF
0.11 | clone 9.30 (peptide) chain 1: CAFGRGAQKLVF chain 2: CATRIGWGTDTQYF
